Target: F-actin (human (endogenous in T cells)) (UniProt P60709)

| Substance | mobile fraction (MF) of the EGFP-tagged ezrin by FRAP in human T cells, no pretreatment, with SDF-1 | mobile fraction (MF) of the EGFP-tagged ezrin by FRAP in human T cells, no pretreatment, without SDF-1 | mobile fraction (MF) of the EGFP-tagged ezrin by FRAP in human T cells, pretreated with latrunculin A (1 μM, 30 min), with SDF-1 | mobile fraction (MF) of the EGFP-tagged ezrin by FRAP in human T cells, pretreated with latrunculin A (1 μM, 30 min), without SDF-1 |
| --- | --- | --- | --- | --- |
| T567D ezrin-EGFP (from UniProt P15311 1-586) (natural protein) | 0.18 | 0.25 | 0.81 | 0.72 |
| wild type (WT) ezrin-EGFP (from UniProt P15311 1-586) (natural protein) | 0.64 | 0.74 | 0.79 | 0.81 |

— article PMC3619129
